Assay results taken from article PMC2199947.

Target: receptor-type protein tyrosine phosphatase PTPmu (endogenous, MvLu mink lung cells) (mink (endogenous in MvLu))
Assay: co-IP

Substance | percent of the cadherin cleared from the lysate by immunoprecipitation of PTPmu
116-kD cadherin of MvLu cells (natural protein) | 80%
130-kD cadherin of MvLu cells (natural protein) | 80%
